# Measurements: the supplement of paper PMC10065799, “High-throughput profiling of sequence recognition by tyrosine kinases and SH2 domains using bacterial peptide display” (eLife, 2023)
# Columns and labels:
# [1] = biological target: EPHB1 (UniProt P54762); experiment: phosphorylation enrichment, bacterial display (enrichment ratio); higher = better substrate or ligand; peptides without Tyr show the background
# [2] = biological target: FGFR3 (UniProt P22607); experiment: as above
# [3] = tested on: c-Abl (mouse); experiment: as above
# [4] = tested on: AncSZ; experiment: as above
# [5] = biological target: Fes (UniProt P07332); experiment: as above
# [6] = tested on: c-Src; experiment: as above
# [7] = biological target: EPHB2 (UniProt P29323); experiment: as above
# [8] = biological target: Jak2 (UniProt O60674); experiment: as above
# [9] = tested on: Fer (mouse); experiment: as above
# [10] = biological target: MERTK (UniProt Q12866); experiment: as above
# [11] = biological target: Fyn (UniProt P06241); experiment: as above
# [12] = biological target: FGFR1 (UniProt P11362); experiment: as above
# [13] = biological target: Hck (UniProt P08631); experiment: as above
# [14] = biological target: SHP2-C SH2; experiment: SH2 binding enrichment of the phosphorylated peptide, bacterial display (enrichment ratio); higher = better substrate or ligand; peptides without Tyr show the background
# [15] = biological target: c-Src SH2; experiment: as above
# [16] = biological target: Grb2 SH2 (UniProt P62993); experiment: as above
# 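Throughout, for SH2 binding enrichment of the phosphorylated peptide, bacterial display: peptide library displayed on the E. coli surface as eCPX fusions, selected cells deep-sequenced, score is each peptide's frequency after selection divided by its frequency in the input.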
# 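Throughout, for phosphorylation enrichment, bacterial display: 11-residue human phosphosite peptides and single-mutation variants displayed on the E. coli surface, counted by deep sequencing, each peptide's frequency after selection divided by its frequency in the unselected input library; frequency after pTyr selection over input frequency; kinase dosed for 20-30% of maximal phosphorylation in three min.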
# Chain of MERTK (Q12866 whole entry, looked up): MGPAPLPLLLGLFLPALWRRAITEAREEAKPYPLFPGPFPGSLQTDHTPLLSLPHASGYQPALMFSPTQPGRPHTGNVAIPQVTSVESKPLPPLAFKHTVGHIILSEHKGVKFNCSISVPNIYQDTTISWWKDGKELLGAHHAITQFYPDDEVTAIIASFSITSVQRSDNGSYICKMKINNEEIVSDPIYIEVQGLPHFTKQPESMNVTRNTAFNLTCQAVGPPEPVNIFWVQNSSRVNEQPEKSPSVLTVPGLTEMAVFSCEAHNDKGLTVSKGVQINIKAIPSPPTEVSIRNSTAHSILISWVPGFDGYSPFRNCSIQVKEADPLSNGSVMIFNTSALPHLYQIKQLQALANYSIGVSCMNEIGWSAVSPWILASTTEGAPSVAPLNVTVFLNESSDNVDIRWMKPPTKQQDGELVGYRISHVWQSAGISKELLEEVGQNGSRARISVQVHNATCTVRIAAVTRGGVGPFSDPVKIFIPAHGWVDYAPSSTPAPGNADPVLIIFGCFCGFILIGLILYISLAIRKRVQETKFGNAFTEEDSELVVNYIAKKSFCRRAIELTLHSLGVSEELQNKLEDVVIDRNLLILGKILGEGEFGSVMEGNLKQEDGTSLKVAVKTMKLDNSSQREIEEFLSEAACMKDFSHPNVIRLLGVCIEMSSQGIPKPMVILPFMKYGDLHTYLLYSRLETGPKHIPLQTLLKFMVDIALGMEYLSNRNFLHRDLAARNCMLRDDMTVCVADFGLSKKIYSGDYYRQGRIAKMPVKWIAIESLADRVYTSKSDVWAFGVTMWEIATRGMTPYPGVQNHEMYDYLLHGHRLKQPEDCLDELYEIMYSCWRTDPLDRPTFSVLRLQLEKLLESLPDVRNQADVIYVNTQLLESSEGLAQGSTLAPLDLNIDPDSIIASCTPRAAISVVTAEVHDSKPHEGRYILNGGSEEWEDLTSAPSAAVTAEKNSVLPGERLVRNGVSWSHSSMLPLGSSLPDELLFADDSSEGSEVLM
# Chain of FGFR1 (P11362 whole entry, looked up): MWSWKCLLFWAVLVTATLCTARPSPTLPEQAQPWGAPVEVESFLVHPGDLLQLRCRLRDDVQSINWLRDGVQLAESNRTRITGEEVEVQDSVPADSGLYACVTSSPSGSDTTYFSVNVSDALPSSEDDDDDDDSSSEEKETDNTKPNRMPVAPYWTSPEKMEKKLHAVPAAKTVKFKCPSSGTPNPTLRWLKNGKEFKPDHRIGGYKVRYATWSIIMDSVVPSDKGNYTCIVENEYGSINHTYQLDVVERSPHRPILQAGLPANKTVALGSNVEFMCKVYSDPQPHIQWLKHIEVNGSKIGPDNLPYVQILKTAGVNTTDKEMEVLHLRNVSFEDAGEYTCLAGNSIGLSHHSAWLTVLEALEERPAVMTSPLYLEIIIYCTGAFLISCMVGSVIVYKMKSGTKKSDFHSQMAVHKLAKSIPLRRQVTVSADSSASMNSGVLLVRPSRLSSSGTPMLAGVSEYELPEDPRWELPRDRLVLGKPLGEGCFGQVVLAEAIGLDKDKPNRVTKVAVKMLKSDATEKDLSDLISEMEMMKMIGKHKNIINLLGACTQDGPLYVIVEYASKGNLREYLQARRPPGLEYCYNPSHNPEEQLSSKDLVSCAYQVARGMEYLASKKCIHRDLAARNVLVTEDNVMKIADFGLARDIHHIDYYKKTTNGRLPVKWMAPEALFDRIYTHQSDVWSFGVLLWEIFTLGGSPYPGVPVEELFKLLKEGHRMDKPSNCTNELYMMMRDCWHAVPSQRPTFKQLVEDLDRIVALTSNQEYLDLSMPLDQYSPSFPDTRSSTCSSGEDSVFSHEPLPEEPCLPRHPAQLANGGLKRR
# Chain of EPHB2 (P29323 whole entry, looked up): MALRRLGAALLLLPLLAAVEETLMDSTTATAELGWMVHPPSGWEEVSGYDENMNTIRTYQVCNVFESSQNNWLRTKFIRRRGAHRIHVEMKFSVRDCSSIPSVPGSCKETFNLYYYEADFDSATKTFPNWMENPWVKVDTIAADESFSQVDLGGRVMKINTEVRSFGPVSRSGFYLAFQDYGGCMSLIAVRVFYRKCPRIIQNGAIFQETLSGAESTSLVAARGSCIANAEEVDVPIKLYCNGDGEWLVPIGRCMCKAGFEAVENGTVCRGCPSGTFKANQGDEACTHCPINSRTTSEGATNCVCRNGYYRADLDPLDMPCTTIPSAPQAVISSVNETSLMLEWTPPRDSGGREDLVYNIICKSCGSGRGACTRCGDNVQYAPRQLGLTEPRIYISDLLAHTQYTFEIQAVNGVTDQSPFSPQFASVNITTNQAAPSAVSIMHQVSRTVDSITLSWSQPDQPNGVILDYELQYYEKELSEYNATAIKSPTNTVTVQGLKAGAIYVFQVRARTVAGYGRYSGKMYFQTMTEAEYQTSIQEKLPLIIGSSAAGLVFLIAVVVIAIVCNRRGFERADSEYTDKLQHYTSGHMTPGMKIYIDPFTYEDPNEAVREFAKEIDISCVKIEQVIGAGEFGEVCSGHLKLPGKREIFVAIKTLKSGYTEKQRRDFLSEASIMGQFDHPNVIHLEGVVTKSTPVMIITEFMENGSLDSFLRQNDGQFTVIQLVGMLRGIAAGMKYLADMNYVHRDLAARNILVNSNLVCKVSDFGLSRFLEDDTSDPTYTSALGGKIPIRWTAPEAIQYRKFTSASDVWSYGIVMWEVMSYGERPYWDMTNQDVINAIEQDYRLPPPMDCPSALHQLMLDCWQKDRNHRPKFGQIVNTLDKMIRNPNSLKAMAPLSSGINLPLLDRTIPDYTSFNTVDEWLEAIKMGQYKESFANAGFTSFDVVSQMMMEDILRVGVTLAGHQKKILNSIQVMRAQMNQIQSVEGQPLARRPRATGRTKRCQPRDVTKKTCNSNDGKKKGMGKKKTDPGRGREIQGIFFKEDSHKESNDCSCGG
# Chain of Fyn (P06241 whole entry, looked up): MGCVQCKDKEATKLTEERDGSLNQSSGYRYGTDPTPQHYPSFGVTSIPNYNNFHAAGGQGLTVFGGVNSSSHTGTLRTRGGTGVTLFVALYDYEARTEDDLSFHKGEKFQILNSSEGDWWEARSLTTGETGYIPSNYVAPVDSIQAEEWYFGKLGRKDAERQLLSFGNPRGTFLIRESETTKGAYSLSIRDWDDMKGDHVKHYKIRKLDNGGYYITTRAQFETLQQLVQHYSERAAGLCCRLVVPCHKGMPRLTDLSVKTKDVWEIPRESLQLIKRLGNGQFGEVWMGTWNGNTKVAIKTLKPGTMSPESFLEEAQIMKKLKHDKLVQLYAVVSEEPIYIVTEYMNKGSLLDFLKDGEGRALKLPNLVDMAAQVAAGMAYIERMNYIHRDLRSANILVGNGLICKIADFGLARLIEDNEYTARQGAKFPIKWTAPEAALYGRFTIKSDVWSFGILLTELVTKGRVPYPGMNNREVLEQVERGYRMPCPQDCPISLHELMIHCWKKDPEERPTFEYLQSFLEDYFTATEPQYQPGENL
# Chain of Hck (P08631 whole entry, looked up): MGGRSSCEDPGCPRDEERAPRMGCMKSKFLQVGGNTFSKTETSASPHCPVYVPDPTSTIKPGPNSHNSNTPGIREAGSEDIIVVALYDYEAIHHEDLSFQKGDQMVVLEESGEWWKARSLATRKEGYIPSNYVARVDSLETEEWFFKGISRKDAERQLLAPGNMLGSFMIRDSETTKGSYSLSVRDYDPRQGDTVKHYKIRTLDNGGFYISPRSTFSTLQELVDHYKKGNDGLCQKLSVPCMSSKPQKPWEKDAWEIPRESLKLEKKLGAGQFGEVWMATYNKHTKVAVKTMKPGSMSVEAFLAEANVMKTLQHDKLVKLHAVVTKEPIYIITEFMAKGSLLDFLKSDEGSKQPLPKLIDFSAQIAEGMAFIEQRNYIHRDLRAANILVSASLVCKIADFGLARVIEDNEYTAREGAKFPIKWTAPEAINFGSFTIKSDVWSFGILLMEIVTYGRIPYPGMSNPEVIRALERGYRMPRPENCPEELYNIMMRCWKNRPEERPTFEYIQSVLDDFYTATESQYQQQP
# Chain of EPHB1 (P54762 whole entry, looked up): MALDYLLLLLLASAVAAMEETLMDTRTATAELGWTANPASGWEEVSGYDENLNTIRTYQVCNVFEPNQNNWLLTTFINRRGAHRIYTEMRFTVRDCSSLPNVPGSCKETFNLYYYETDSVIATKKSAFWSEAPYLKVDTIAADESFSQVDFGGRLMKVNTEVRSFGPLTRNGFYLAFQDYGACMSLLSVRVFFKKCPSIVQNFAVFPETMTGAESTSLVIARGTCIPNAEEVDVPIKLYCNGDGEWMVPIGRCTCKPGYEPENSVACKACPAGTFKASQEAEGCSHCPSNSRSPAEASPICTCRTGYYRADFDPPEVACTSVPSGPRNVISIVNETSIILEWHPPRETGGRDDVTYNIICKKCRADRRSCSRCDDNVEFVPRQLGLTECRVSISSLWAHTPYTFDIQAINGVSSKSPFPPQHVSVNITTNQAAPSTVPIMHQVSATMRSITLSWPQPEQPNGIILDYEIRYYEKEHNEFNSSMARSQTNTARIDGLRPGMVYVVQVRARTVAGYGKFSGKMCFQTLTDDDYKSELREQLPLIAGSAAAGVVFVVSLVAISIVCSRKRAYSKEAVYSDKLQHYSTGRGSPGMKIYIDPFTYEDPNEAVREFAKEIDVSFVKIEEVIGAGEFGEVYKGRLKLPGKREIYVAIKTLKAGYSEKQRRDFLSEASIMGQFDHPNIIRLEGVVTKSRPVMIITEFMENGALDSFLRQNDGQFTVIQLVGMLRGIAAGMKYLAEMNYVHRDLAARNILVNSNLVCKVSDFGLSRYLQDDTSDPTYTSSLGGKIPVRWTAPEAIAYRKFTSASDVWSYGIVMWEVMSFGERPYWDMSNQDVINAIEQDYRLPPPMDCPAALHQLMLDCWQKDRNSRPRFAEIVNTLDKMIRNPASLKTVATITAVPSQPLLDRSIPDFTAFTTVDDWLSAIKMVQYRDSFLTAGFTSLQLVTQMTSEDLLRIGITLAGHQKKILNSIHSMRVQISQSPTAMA
SH2 binding enrichment [14],SH2 binding enrichment [15],SH2 binding enrichment [16],Sequence,phosphorylation enrichment [1],phosphorylation enrichment [2],phosphorylation enrichment [3],phosphorylation enrichment [4],phosphorylation enrichment [5],phosphorylation enrichment [6],phosphorylation enrichment [7],phosphorylation enrichment [8],phosphorylation enrichment [9],phosphorylation enrichment [10],phosphorylation enrichment [11],phosphorylation enrichment [12],phosphorylation enrichment [13]
0.553,0.686,1.06,LLNAIYLSAKW [SERPING1_Y294],1.3,2.29,1.22,1.61,1.66,1.04,0.794,1.41,0.692,0.503,1.12,0.464,2.18
0.47,0.753,0.747,PADRAYSWYQH [NDST1_Y711],1.19,1.16,1.58,0.98,1.61,1.77,0.817,1.68,15.8,2.86,0.617,1.33,0.888
0.595,0.443,0.815,EEQKKNYNAMK [SCN5A_Y1494_Y1494N],0.389,0.399,0.497,0.572,0.663,0.415,0.364,0.55,0.336,0.395,0.291,0.433,0.351
0.635,0.547,0.858,FDDIANIRKTL [PIK3CA_Y1021_Y1021N],0.525,0.513,0.813,0.873,0.746,0.416,0.452,0.496,0.459,0.386,0.465,0.652,0.275
0.773,0.585,0.856,FLELNYKEDEF [MME_Y502_YF],0.612,0.633,0.589,1.34,1.05,0.349,0.569,0.848,0.524,0.344,0.461,0.565,0.552
0.586,0.336,0.546,STEVIYLPRRK [STK11_Y36_Q37L],0.419,0.53,0.466,0.624,0.589,0.591,0.588,0.568,0.526,0.618,0.7,0.52,0.515

# Further lines, the sequence ahead of its results:
Sequence,SH2 binding enrichment [14],SH2 binding enrichment [15],SH2 binding enrichment [16],phosphorylation enrichment [1],phosphorylation enrichment [2],phosphorylation enrichment [3],phosphorylation enrichment [4],phosphorylation enrichment [5],phosphorylation enrichment [6],phosphorylation enrichment [7],phosphorylation enrichment [8],phosphorylation enrichment [9],phosphorylation enrichment [10],phosphorylation enrichment [11],phosphorylation enrichment [12],phosphorylation enrichment [13]
NIQKKYYRAIL [CHD7_Y1217],1.09,0.898,1.09,0.346,0.595,0.563,0.502,0.543,0.371,0.375,0.494,0.533,0.345,0.443,0.472,0.355
AYGGGYGGVLT [KRT19_Y65],0.614,0.401,0.623,0.461,0.645,0.485,0.583,0.574,0.573,0.458,0.485,0.477,0.372,0.442,0.456,0.605
RRNTCYASIAK [ACADM_Y353_Y352C],7.11,3.02,0.784,0.287,0.347,0.333,0.369,0.467,0.279,0.332,0.294,0.424,0.332,0.4,0.272,0.391
VECHLYFTQPK [AKR1D1_Y199_P198L],0.867,0.374,0.801,0.717,0.946,1.02,1.42,1.33,0.91,0.663,1.58,0.645,0.556,0.588,0.493,0.631
ITNLLYHVVGW [GBA_Y412],0.954,0.962,0.998,5.73,5.65,2.9,1.18,1.32,4.6,3.59,3,2.79,7.56,4.07,6.87,5.96
ELANLYHHVWM [BICD2_Y538_C542W],0.835,0.816,0.869,6.35,4.76,0.918,1.32,1.25,2.51,1.93,1.3,12.9,6.21,2.75,6.38,5.11
VYSTDYYRVGG [NTRK2_Y706],0.687,0.719,0.92,8.68,11.8,1.49,2.94,0.902,4.67,7.13,10,1.22,11,5.13,15.3,4.61
ITRDIYETDYY [INSR_Y1185_M1180I],0.695,1.1,0.854,1.45,1.95,0.722,2.67,1.47,2.76,1.55,1.09,0.72,0.828,1.58,2.03,1.19
RGNKEYEEEKR [LENG1_Y96],0.739,0.538,0.863,0.519,0.686,0.458,0.723,0.756,0.323,0.493,0.822,0.394,0.314,0.534,0.407,0.737
MKMISYETLIA [DOCK10_Y1350_T1347M],1.24,2,0.752,0.659,0.629,0.65,0.784,0.948,0.421,0.566,0.888,0.467,0.485,0.468,0.634,0.581
